Results on one molecule are retold here after patent US8525237 (University of California, dated 2013).

Ends that are not written are not given here.

In the assay the target is transferrin receptor (TfR) (UniProt P02786 89-760, limits assumed). The experiment in a line: phage-based ELISA (assay not given). For orientation: An ELISA detects its analyte on a solid surface through an enzyme-linked reagent.
Sequence of transferrin receptor (TfR) (P02786 89-760 limits assumed): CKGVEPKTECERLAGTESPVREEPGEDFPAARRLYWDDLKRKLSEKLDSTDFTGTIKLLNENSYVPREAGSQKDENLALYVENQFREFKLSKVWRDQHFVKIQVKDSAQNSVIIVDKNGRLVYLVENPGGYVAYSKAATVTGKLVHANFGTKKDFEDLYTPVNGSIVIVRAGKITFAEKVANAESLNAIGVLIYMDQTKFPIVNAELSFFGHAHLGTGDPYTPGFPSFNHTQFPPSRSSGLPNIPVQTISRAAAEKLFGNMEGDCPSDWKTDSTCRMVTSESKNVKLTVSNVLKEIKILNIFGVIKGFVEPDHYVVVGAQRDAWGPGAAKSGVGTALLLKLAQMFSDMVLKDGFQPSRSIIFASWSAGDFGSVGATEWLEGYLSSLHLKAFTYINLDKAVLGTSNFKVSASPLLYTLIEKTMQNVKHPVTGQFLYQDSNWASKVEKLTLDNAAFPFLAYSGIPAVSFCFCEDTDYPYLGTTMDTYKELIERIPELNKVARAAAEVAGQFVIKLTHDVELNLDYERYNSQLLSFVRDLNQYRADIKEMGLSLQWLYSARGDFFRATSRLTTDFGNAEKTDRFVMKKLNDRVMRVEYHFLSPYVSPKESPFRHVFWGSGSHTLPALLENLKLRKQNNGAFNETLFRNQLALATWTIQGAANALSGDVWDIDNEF

B1: PSMA-3 peptide displayed on M13 phage (peptide, not shown: large carriers)
peptide: SECVEVFQNSCDW
modifications: not fully specified; cysteine pairing not given here
notes: Tested on phage in ELISA and as phage encapsulated in PEDOT nanowires; also called second generation peptide; PSMA-3 viruses
Regarding B1, the binding result is on record as “no binding”.
